In patent publication US20250042970A1:
pEC50, pIC50, pKd: −log10 of the molar value. Read-outs that look alike come from different tables or passages of the source.

Key:
[1] = target: FLAG-tagged human BAFF (human) (UniProt Q9Y275); assay: KinExA
[2] = target: FLAG-tagged recombinant human APRIL (human) (UniProt O75888); assay: KinExA
[3] = target: soluble huBAFF (Example 12) (human) (UniProt Q9Y275)
membrane-huBAFF (human) = membrane-huBAFF (human) (UniProt Q9Y275)
[4] = target: 6HIS-tagged murine BAFF (mouse) (UniProt Q9WU72); assay: BIACORE SPR
Chain of 6HIS-tagged murine BAFF (mouse) (Q9WU72 127-309 limits assumed): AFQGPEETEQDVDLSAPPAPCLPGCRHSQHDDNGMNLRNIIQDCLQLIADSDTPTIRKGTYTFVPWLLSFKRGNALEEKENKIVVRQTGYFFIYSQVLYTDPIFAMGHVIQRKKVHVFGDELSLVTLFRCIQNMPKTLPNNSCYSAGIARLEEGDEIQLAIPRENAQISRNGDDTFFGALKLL

[5] = target: FLAG-tagged cynomolgous APRIL (cynomolgus monkey); assay: BIACORE SPR
Chain of FLAG-tagged cynomolgous APRIL (cynomolgus monkey) (A0ACM8 entry or part of it limits assumed): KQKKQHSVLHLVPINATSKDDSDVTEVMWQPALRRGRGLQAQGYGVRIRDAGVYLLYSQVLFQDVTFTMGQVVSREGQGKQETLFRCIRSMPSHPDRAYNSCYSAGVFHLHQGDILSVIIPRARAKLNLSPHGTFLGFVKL

[6] = target: FLAG-tagged human BAFF (human) (UniProt Q9Y275); assay: BIACORE SPR
[7] = target: FLAG-tagged murine megaAPRIL (mouse) (UniProt Q9D777); assay: BIACORE SPR
[8] = target: human APRIL (Acros Biosystems) (human) (UniProt O75888); assay: cell-based or functional assay
Chain of human APRIL (Acros Biosystems) (human) (O75888 115-250 limits assumed): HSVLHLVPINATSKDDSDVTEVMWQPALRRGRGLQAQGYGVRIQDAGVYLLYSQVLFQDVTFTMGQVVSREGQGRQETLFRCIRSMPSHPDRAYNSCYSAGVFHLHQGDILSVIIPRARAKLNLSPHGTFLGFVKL

[9] = target: human BAFF (Acros Biosystems) (human) (UniProt Q9Y275); assay: cell-based or functional assay
[10] = target: human BAFF-60mer (Adipogen) (human) (UniProt Q9Y275); assay: cell-based or functional assay
[11] = target: human APRIL (Examples 21-23) (human) (UniProt O75888); assay: SPR (Carterra LSA, HC30M chip)
Chain of human APRIL (Examples 21-23) (human) (O75888 105-250 limits assumed): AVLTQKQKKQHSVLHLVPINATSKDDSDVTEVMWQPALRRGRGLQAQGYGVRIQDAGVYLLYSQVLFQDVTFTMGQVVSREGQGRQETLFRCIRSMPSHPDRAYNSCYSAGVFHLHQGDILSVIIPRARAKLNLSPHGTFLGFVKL

[12] = target: human BAFF (Examples 21-23) (human) (UniProt Q9Y275); assay: SPR (Carterra LSA, HC30M chip)
[13] = target: murine BAFF (Examples 22-23) (mouse) (UniProt Q9WU72); assay: SPR (Carterra LSA, HC30M chip)
Chain of murine BAFF (Examples 22-23) (mouse) (Q9WU72 127-309 limits assumed): as the sequence (Q9WU72 127-309 limits assumed) above

syndecan-1 [14] = target: T1, syndecan-1; assay: colorimetric ELISA, binding curve (450 nm against LogM) on syndecan-1; curve rises to about 1.8 at LogM about -6.7, no plateau
T1 sequence (P18827 whole entry, species assumed, looked up): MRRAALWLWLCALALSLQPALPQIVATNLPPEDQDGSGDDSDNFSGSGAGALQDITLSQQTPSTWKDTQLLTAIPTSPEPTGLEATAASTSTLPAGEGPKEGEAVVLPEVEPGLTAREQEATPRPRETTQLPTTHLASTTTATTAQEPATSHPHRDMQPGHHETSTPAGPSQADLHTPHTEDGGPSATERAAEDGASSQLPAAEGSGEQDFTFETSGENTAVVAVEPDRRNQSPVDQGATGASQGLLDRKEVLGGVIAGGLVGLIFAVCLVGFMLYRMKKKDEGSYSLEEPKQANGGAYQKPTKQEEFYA

syndecan-2 [15] = assay: colorimetric ELISA, binding curve (450 nm against LogM) on syndecan-2; curve rises to about 2.4 at LogM about -6.7, no plateau
Chain of syndecan-2 (P34741 whole entry, the tested form may be a part): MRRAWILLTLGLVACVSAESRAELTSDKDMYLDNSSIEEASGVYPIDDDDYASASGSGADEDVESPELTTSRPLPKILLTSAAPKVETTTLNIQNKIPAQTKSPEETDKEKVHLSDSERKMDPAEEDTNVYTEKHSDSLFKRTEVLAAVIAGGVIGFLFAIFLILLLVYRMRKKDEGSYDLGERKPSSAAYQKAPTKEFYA

[16] = target: human BAFF (Examples 21-23) (human) (UniProt Q9Y275); assay: colorimetric ELISA, inhibition curve (450 nm against LogM of the fusion protein) for human BAFF; the partner on the plate not given
[17] = target: murine BAFF (Examples 22-23) (mouse) (UniProt Q9WU72); assay: colorimetric ELISA, inhibition curve (450 nm against logM of the fusion protein) for mouse BAFF; the partner on the plate not given
[18] = target: human APRIL (Examples 21-23) (human) (UniProt O75888); assay: colorimetric ELISA, inhibition curve (450 nm against LogM of the fusion protein) for human APRIL; the partner on the plate not given
[19] = target: murine APRIL (Examples 22-23) (mouse) (UniProt Q9D777); assay: colorimetric ELISA, inhibition curve (450 nm against logM of the fusion protein) for mouse APRIL; the partner on the plate not given
Chain of murine APRIL (Examples 22-23) (mouse) (Q9D777 96-241 limits assumed): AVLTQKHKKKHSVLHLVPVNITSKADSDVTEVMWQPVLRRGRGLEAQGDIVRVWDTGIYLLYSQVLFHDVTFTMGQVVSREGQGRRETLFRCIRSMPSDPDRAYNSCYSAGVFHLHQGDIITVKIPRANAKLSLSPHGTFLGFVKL

[20] = target: human APRIL (Examples 21-23) (human) (UniProt O75888); assay: assay not given (Example 21)
[21] = target: human BAFF (Examples 21-23) (human) (UniProt Q9Y275); assay: assay not given (Example 21)
[22] = target: murine APRIL (Examples 22-23) (mouse) (UniProt Q9D777); assay: SPR (Carterra LSA, HC30M chip)
syndecan-1 [23] = target: T1, syndecan-1; assay: colorimetric ELISA, binding curve (450 nm against LogM) on syndecan-1; curve rises to about 0.7 at LogM about -6.7, no plateau
syndecan-2 [24] = assay: colorimetric ELISA, binding curve (450 nm against LogM) on syndecan-2; curve rises to about 1.1 at LogM about -6.7, no plateau
[25] = target: FLAG-tagged human BAFF (human) (UniProt Q9Y275); assay: KinExA; remark: listed apart in the source
[26] = target: FLAG-tagged cynomolgous APRIL (cynomolgus monkey); assay: BIACORE SPR; remark: listed apart in the source
[27] = target: FLAG-tagged human BAFF (human) (UniProt Q9Y275); assay: BIACORE SPR; remark: listed apart in the source
[28] = target: FLAG-tagged human BAFF (human) (UniProt Q9Y275); assay: BIACORE SPR; Table 3 experiment (BAv8-10 derivative series), control run

Chain of FLAG-tagged recombinant human APRIL (human) (O75888 105-250 limits assumed): as the sequence (O75888 105-250 limits assumed) above
Chain of RC18 (Telitacicept) (Fc fusion) (chain): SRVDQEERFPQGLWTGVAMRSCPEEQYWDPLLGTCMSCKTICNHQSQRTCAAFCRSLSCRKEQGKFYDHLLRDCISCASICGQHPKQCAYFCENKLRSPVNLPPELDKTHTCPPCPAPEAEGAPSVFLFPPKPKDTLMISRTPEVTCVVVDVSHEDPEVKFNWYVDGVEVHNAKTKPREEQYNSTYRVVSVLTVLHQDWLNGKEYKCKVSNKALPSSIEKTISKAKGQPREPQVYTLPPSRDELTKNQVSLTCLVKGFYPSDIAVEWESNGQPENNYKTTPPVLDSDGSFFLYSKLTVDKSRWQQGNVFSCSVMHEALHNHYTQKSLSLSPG

pKd [1]	Selectivity for huBAFF (KD APRIL/KD BAFF) [1]	fold improvement over control [1] [fold]	pKd [2]	Selectivity for huAPRIL (KD BAFF/KD APRIL) [2]	fold improvement over control [2] [fold]	IC50 (read off the curve) (NFkappaB luciferase signal of HEK293-huBCMA reporter cells stimulated with soluble huBAFF) [3] [nM]	pKd [4]	pKd [5]	fold improvement KD vs control [5] [fold]	pKd [6]	fold improvement KD vs control [6] [fold]	pKd [7]	IC50 for proliferation of stimulated B cells, Donor 1, APRIL + anti-IgM [8] [nM]	IC50 for proliferation of stimulated B cells, Donor 2, APRIL + anti-IgM [8] [pM]	IC50 for proliferation of stimulated B cells, Donor 3, APRIL + anti-IgM [8] [nM]	IC50 for proliferation of stimulated B cells, Donor 1, BAFF + anti-IgM [9] [nM]	IC50 for proliferation of stimulated B cells, Donor 2, BAFF + anti-IgM [9] [nM]	IC50 for proliferation of stimulated B cells, Donor 3, BAFF + anti-IgM [9] [nM]	IC50 for proliferation of stimulated B cells, Donor 1, BAFF-60mer + anti-IgM [10] [nM]	Substance	also measured
9.82	0.9	1.5	9.88	1.15	0.001	5	9.64	8.92	0.01	10.13	1.6	9.38								Z-TACI-Ig fusion protein (from UniProt O14836 30-110) (Fc fusion)	IC50 (read off the curve) (NFkappaB luciferase signal of HEK293-huBCMA reporter cells stimulated with HEK-293 cells expressing membrane huBAFF) (membrane-huBAFF (human)): 5 nM
													2.51	573	4.14	1.98	0.295	1.05	2.37	RC18 (Telitacicept) (Fc fusion)	IC50 for proliferation of stimulated B cells, Donor 2, BAFF-60mer + anti-IgM [10]: 0.818 nM; IC50 for proliferation of stimulated B cells, Donor 3, BAFF-60mer + anti-IgM [10]: 1.97 nM; pKd [11]: 10.09; pKd [12]: 9.21; pKd [13]: 11.64; pEC50 (syndecan-1 [14]): 6.80; pEC50 (syndecan-2 [15]): 7.15; pIC50 [16]: 7.91; pIC50 [17]: 7.41; pIC50 [18]: 8.17; pIC50 [19]: 6.63
													3	0.01	2.15	0.64	0.0985	0.379	2.06	Atacicept (Fc fusion)	IC50 for proliferation of stimulated B cells, Donor 2, BAFF-60mer + anti-IgM [10]: 0.683 nM; IC50 for proliferation of stimulated B cells, Donor 3, BAFF-60mer + anti-IgM [10]: 1.13 nM; pKd [20]: 9.89; pKd [21]: 9.82; pKd [11]: 10.17; pKd [12]: 9.04; pKd [22]: 9.89; pKd [13]: 9.27; pEC50 (syndecan-1 [23]): 6.92; pEC50 (syndecan-2 [24]): 5.27; pIC50 [16]: 8.17; pIC50 [17]: 7.51; pIC50 [18]: 8.44; pIC50 [19]: 6.67
9.65	0.0007	1	12.80	1420	1	2	10.17	10.82	1	9.92	1	10.67								[S40G]huBCMA ECD-Ig fusion protein (from UniProt Q02223 5-54) (Fc fusion)	pKd [25]: 9.65; pKd [26]: 10.24; fold improvement over control [26]: 1 fold; fold improvement over control [27]: 1 fold; pKd [28]: 9.76
